The text below walks through data of publication PMC3907554, “Crystal Structure of an (R)-Selective ω-Transaminase from Aspergillus terreus” (PLoS ONE, 2014).

The data set concerns the molecule itself. Description: crystal structure; X-ray, 1.63 Å, space group C222(1); crystals from Morpheus condition H02 (10% w/v PEG 8000, 20% v/v ethylene glycol, amino acid mix, 0.1 M MES/imidazole pH 6.5), 18°C; two chains in the asymmetric unit.

B1: (R)-selective ω-transaminase from Aspergillus terreus (enzyme, UniProt Q0C8G1 1-325, looked up)
chain: MASMDKVFAGYAARQAILESTETTNPFAKGIAWVEGELVPLAEARIPLLDQGFMHSDLTYDVPSVWDGRFFRLDDHITRLEASCTKLRLRLPLPRDQVKQILVEMVAKSGIRDAFVELIVTRGLKGVRGTRPEDIVNNLYMFVQPYVWVMEPDMQRVGGSAVVARTVRRVPPGAIDPTVKNLQWGDLVRGMFEAADRGATYPFLTDGDAHLTEGSGFNIVLVKDGVLYTPDRGVLQGVTRKSVINAAEAFGIEVRVEFVPVELAYRCDEIFMCTTAGGIMPITTLDGMPVNGGQIGPITKKIWDGYWAMHYDAAYSFEIDYNERN
modifications: pyridoxal 5'-phosphate (PLP) covalently bound to Lys180 (internal aldimine), present in part; the other state is free Lys180 with a PLP-amino acid adduct (ligand code PGD)
notes: ω-(R)-transaminase from Aspergillus terreus, gene codon-optimized for E. coli; Cloned through NcoI and XhoI into pET28a(+); also called AT-ωTA; (R)-ω-transaminase; source: E. coli BL21-Gold(DE3), pET28a(+), purified (Ni Sepharose, SEC on Superdex 200); not shown: His-Tag, C-terminal, kept
B1: the “stoichiometry N” value came to 2.
